Data: patent publication US20100227824A1 (SYMTHERA CANADA, published 2010)

Target: T1, IL-8 (CXCL8) (UniProt P10145 28-99, limits assumed)
T1 construct: also called IL-8(72aa); IL-8(77aa)
T1 sequence (looked up): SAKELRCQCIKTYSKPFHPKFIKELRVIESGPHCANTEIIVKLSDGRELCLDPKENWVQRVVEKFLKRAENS
Assay: micro-array, phage-presented peptide on printed CK
Method: (§1) (1) Printing: Chemokine (CK) solution (in water) was serially diluted with Print Reagent (GenTel BioSurfaces USA) to final concentrations of 50 μg and 25 μg/ml. BSA/BSA-Biotin control solutions (in water) were diluted with Print Reagent to 100 μg/ml. Amplified stock of M13 phage control (M13KEgIII Cloning Vector, New England Biolabs, Cat.No.E8101S) was stored in Tris Buffered Saline (TBS; pH7.5, 4° C.) and diluted with Print Reagent to the working titre (10^8 pfu/μl). An automated spotting robot (16 pin print tool, 0.4mm head; BioRobotics, UK) was used to print the CK/BSA control/M13 control, 5 repeats per sample (CK 25 μg/ml and 50 μg/ml; BSA 100 μg/ml; M13 20 μl), on PATH Protein Microarray Slides (GenTel, Prod.No.2-1005/-1025) at […], and 50-70% relative humidity. Printed micro-array slides were stored at Room Temperature (RT) or 4° C. for at least 24 h before use.
(§2) (2) Blocking: Block Buffer (500 μl/partition; PATHblock, GenTel, Prod.No.2-1014) was applied to the slide for 1 hour at room temp (RT). After removal of Block Buffer, the slide was air dried for 25 minutes;
(§3) (11) Analysis: Quantitative analysis of micro-array was performed by the SpotReader program of Niles Scientific (USA) and presented as Relative Fluorescence (RF) as a function of CK concentration. Micro-array readout (Cy3 fluorescence) was quantified to determine the relative binding affinities of a CBP for the CKs and by inference, the specificity of the CBP for binding to a CK.

Row | Binder | Relative Fluorescence Units (RFU)
1 | DYDYG [Phage-Presented Peptide 31 (Ph-p31)] | > 15000
2 | DYDYGAPC [Phage-Presented Peptide 30 (Ph-p30)] | > 15000
3 | WVFGVHFCK [Phage-Presented Peptide 8.77 (Ph-p8.77)] | > 15000

Target: T2, Mig (CXCL9) (UniProt Q07325 23-125)
T2 construct: Bought chemokine
T2 sequence (looked up): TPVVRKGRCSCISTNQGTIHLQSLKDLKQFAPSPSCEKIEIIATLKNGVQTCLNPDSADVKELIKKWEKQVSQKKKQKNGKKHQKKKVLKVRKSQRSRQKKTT
Assay: micro-array, phage-presented peptide on printed CK
Method: as §1, §2, §3

Row | Binder | Relative Fluorescence Units (RFU)
4 | DYDYG [Phage-Presented Peptide 31 (Ph-p31)] | > 15000
5 | DYDYGAPC [Phage-Presented Peptide 30 (Ph-p30)] | > 15000
6 | WVFGVHFCK [Phage-Presented Peptide 8.77 (Ph-p8.77)] | > 15000

Target: T3, IP-10 (CXCL10) (UniProt P02778 22-98)
T3 construct: Bought chemokine
T3 sequence (looked up): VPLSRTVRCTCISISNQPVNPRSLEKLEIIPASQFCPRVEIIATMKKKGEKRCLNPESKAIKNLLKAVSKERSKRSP
Assay: micro-array, phage-presented peptide on printed CK
Method: as §1, §2, §3

Row | Binder | Relative Fluorescence Units (RFU)
7 | NAMCK [Phage-Presented Peptide 8.11 (Ph-p8.11)] | > 10000

Target: T4, I-TAC (CXCL11) (UniProt O14625 22-94)
T4 construct: Bought chemokine; also called I-TACK
T4 sequence (looked up): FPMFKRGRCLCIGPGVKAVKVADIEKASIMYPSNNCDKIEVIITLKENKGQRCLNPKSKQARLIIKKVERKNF
Assay: micro-array, phage-presented peptide on printed CK
Method: as §1, §2, §3

Row | Binder | Relative Fluorescence Units (RFU)
8 | DYDYG [Phage-Presented Peptide 31 (Ph-p31)] | > 15000
9 | DYDYGAPC [Phage-Presented Peptide 30 (Ph-p30)] | > 15000
10 | NAMCK [Phage-Presented Peptide 8.11 (Ph-p8.11)] | > 10000
11 | WVFGVHFCK [Phage-Presented Peptide 8.77 (Ph-p8.77)] | > 15000

Target: T5, I-309 (CCL1) (UniProt P22362 23-96, limits assumed)
T5 construct: Bought chemokine
T5 sequence (looked up): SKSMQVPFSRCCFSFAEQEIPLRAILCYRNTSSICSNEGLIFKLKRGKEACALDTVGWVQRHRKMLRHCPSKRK
Assay: micro-array, phage-presented peptide on printed CK
Method: as §1, §2, §3

Row | Binder | Relative Fluorescence Units (RFU)
12 | DYDYG [Phage-Presented Peptide 31 (Ph-p31)] | > 15000
13 | DYDYGAPC [Phage-Presented Peptide 30 (Ph-p30)] | > 15000
14 | WVFGVHFCK [Phage-Presented Peptide 8.77 (Ph-p8.77)] | > 15000

Target: T6, MCP-1 (CCL2) (UniProt P13500 24-99)
T6 construct: Bought chemokine
Assay: micro-array, phage-presented peptide on printed CK
Method: as §1, §2, §3

T6 sequence (P13500 24-99 limits assumed): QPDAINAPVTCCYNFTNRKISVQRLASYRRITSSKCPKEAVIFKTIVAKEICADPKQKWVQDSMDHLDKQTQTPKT

Row | Binder | Relative Fluorescence Units (RFU)
15 | DYDYG [Phage-Presented Peptide 31 (Ph-p31)] | > 15000
16 | DYDYGAPC [Phage-Presented Peptide 30 (Ph-p30)] | > 15000

Target: T7, MCP-2 (CCL8) (UniProt P80075 24-99)
T7 construct: Bought chemokine
T7 sequence (looked up): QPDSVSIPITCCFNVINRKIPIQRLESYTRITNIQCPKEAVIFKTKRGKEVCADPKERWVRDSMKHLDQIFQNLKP
Assay: micro-array, phage-presented peptide on printed CK
Method: as §1, §2, §3

Row | Binder | Relative Fluorescence Units (RFU)
17 | DYDYG [Phage-Presented Peptide 31 (Ph-p31)] | > 15000
18 | DYDYGAPC [Phage-Presented Peptide 30 (Ph-p30)] | > 15000
19 | WVFGVHFCK [Phage-Presented Peptide 8.77 (Ph-p8.77)] | > 15000

Target: T8, MCP-4 (CCL13) (UniProt Q99616 24-98)
T8 construct: Bought chemokine
Assay: micro-array, phage-presented peptide on printed CK
Method: as §1, §2, §3

T8 sequence (Q99616 24-98 limits assumed): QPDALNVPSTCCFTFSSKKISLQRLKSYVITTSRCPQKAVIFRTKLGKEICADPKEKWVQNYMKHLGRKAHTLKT

Row | Binder | Relative Fluorescence Units (RFU)
20 | DYDYG [Phage-Presented Peptide 31 (Ph-p31)] | > 15000
21 | DYDYGAPC [Phage-Presented Peptide 30 (Ph-p30)] | > 15000
22 | WVFGVHFCK [Phage-Presented Peptide 8.77 (Ph-p8.77)] | > 15000

Target: T9, RANTES (CCL5) (UniProt P13501 24-91)
T9 construct: Bought chemokine
T9 sequence (looked up): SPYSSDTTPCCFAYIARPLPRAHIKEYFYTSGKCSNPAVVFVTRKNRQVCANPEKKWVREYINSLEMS
Assay: micro-array, phage-presented peptide on printed CK
Method: as §1, §2, §3

Row | Binder | Relative Fluorescence Units (RFU)
23 | DYDYG [Phage-Presented Peptide 31 (Ph-p31)] | > 15000
24 | DYDYGAPC [Phage-Presented Peptide 30 (Ph-p30)] | > 15000

Target: T10, Eotaxin (CCL11) (UniProt P51671 24-97)
T10 construct: Bought chemokine
Assay: micro-array, phage-presented peptide on printed CK
Method: as §1, §2, §3

T10 sequence (P51671 24-97 limits assumed): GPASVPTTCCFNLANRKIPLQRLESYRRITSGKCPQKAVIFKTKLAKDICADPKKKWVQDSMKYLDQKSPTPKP

Row | Binder | Relative Fluorescence Units (RFU)
25 | DYDYG [Phage-Presented Peptide 31 (Ph-p31)] | > 15000
26 | DYDYGAPC [Phage-Presented Peptide 30 (Ph-p30)] | > 15000

Target: T11, Eotaxin 2 (CCL24) (UniProt O00175 27-104, limits assumed)
T11 construct: Bought chemokine
T11 sequence (looked up): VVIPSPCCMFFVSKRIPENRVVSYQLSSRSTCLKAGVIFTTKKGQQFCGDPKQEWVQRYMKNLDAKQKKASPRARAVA
Assay: micro-array, phage-presented peptide on printed CK
Method: as §1, §2, §3

Row | Binder | Relative Fluorescence Units (RFU)
27 | DYDYG [Phage-Presented Peptide 31 (Ph-p31)] | > 15000
28 | DYDYGAPC [Phage-Presented Peptide 30 (Ph-p30)] | > 15000

Target: T12, Eotaxin 3 (CCL26) (UniProt Q9Y258 24-94)
T12 construct: Bought chemokine
T12 sequence (looked up): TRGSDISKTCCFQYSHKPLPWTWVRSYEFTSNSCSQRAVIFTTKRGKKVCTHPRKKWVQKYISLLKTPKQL
Assay: micro-array, phage-presented peptide on printed CK
Method: as §1, §2, §3

Row | Binder | Relative Fluorescence Units (RFU)
29 | DYDYG [Phage-Presented Peptide 31 (Ph-p31)] | > 15000
30 | DYDYGAPC [Phage-Presented Peptide 30 (Ph-p30)] | > 15000
31 | NAMCK [Phage-Presented Peptide 8.11 (Ph-p8.11)] | > 10000
32 | WVFGVHFCK [Phage-Presented Peptide 8.77 (Ph-p8.77)] | > 15000

Target: T13, MDC(69aa) (CCL22) (UniProt O00626 25-93)
T13 construct: Bought chemokine
T13 sequence (looked up): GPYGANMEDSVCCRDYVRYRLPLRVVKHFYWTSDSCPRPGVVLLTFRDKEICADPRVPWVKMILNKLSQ
Assay: micro-array, phage-presented peptide on printed CK
Method: as §1, §2, §3

Row | Binder | binding result
33 | DYDYGAPC [Phage-Presented Peptide 30 (Ph-p30)] | binds

Target: T14, SDF-1α (CXCL12) (UniProt P48061-2 22-89)
T14 construct: Alpha isoform of CXCL12; also called SDFα
Assay: micro-array, phage-presented peptide on printed CK
Method: as §1, §2, §3

T14 sequence (P48061 22-89 limits assumed): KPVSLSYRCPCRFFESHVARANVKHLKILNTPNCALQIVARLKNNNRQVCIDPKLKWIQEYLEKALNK

Row | Binder | binding result
34 | DYDYG [Phage-Presented Peptide 31 (Ph-p31)] | binds
35 | DYDYGAPC [Phage-Presented Peptide 30 (Ph-p30)] | binds
36 | NAMCK [Phage-Presented Peptide 8.11 (Ph-p8.11)] | binds

Target: T15, SDF-1β (CXCL12) (UniProt P48061 22-93)
T15 construct: Beta isoform of CXCL12; also called SDFβ
Assay: micro-array, phage-presented peptide on printed CK
Method: as §1, §2, §3

T15 sequence (P48061 22-93 limits assumed): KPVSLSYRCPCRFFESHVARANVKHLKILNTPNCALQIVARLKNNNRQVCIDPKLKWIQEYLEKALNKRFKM

Row | Binder | binding result
37 | DYDYG [Phage-Presented Peptide 31 (Ph-p31)] | binds
38 | DYDYGAPC [Phage-Presented Peptide 30 (Ph-p30)] | binds
39 | NAMCK [Phage-Presented Peptide 8.11 (Ph-p8.11)] | binds
40 | WVFGVHFCK [Phage-Presented Peptide 8.77 (Ph-p8.77)] | binds

Target: T16, BCA-1 (CXCL13) (UniProt O43927 23-109)
T16 construct: Bought chemokine
T16 sequence (looked up): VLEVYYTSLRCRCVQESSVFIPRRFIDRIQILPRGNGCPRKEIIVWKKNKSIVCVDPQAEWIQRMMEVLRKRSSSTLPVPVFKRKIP
Assay: micro-array, phage-presented peptide on printed CK
Method: as §1, §2, §3

Row | Binder | binding result
41 | DYDYG [Phage-Presented Peptide 31 (Ph-p31)] | binds
42 | DYDYGAPC [Phage-Presented Peptide 30 (Ph-p30)] | binds
43 | NAMCK [Phage-Presented Peptide 8.11 (Ph-p8.11)] | binds
44 | WVFGVHFCK [Phage-Presented Peptide 8.77 (Ph-p8.77)] | binds

Target: T17, Exodus-2 (CCL21) (UniProt O00585 24-134)
T17 construct: Bought chemokine
T17 sequence (looked up): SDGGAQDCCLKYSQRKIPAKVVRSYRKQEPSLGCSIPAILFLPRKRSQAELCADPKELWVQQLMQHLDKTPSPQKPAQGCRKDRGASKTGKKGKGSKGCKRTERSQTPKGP
Assay: micro-array, phage-presented peptide on printed CK
Method: as §1, §2, §3

Row | Binder | binding result
45 | DYDYG [Phage-Presented Peptide 31 (Ph-p31)] | binds
46 | DYDYGAPC [Phage-Presented Peptide 30 (Ph-p30)] | binds
47 | NAMCK [Phage-Presented Peptide 8.11 (Ph-p8.11)] | binds

Target: T18, TECK (CCL25) (UniProt O15444 24-150)
T18 construct: Bought chemokine
T18 sequence (looked up): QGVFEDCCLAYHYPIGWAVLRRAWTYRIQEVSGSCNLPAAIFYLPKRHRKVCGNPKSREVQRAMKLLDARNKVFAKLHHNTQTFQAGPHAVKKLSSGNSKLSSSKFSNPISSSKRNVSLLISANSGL
Assay: micro-array, phage-presented peptide on printed CK
Method: as §1, §2, §3

Row | Binder | binding result
48 | DYDYG [Phage-Presented Peptide 31 (Ph-p31)] | binds
49 | DYDYGAPC [Phage-Presented Peptide 30 (Ph-p30)] | binds
50 | NAMCK [Phage-Presented Peptide 8.11 (Ph-p8.11)] | binds
51 | WVFGVHFCK [Phage-Presented Peptide 8.77 (Ph-p8.77)] | binds

Target: T19, CTAC (CCL27) (UniProt Q9Y4X3 25-112)
T19 construct: Bought chemokine
T19 sequence (looked up): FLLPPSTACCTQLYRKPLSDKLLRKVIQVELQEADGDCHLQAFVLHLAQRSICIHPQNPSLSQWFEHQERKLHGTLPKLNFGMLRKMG
Assay: micro-array, phage-presented peptide on printed CK
Method: as §1, §2, §3

Row | Binder | binding result
52 | DYDYGAPC [Phage-Presented Peptide 30 (Ph-p30)] | binds
53 | NAMCK [Phage-Presented Peptide 8.11 (Ph-p8.11)] | binds

Target: T20, Lymphotactin (XCL-1) (UniProt P47992 23-114, limits assumed)
T20 construct: Bought chemokine
T20 sequence (looked up): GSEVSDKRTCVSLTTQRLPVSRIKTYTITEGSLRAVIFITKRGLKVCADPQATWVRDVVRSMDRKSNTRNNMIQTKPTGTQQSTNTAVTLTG
Assay: micro-array, phage-presented peptide on printed CK
Method: as §1, §2, §3

Row | Binder | binding result
54 | DYDYG [Phage-Presented Peptide 31 (Ph-p31)] | binds
55 | DYDYGAPC [Phage-Presented Peptide 30 (Ph-p30)] | binds
